This passage reports Kd results from patent US20180303952 (published 2018).

This assay addresses T1, human CD147 (human, UniProt P35613).
T1 chain: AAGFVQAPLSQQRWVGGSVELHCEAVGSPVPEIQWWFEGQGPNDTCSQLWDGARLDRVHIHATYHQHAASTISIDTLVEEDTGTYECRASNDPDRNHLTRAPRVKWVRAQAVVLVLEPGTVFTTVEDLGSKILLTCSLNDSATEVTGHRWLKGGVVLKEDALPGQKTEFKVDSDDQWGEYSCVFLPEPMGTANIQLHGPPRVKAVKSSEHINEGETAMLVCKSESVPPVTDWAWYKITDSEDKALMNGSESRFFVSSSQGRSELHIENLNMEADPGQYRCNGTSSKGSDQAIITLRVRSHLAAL
Kind of assay: ELISA.

B1: mouse 3A11 (antibody, V domains shown)
VH: EVQLVESGGGLVQPGGSLRLSCAASGFTFSNYWMDWVRQAPGKGLEWVGEIRLKSYNYATHYAASVKGRFTISRDDSKNSVYLQMNSLKTEDTAVYYCTAAGTDYWGQGTLVTVSS
VL: SIVMTQIPKILLVSAGDRVTITCKASQSVRTDVAWYQQKPGQSPKLLIYYSSNRYTGVPDRFTGSGYGTDFTFTISTVQAEDLAVYFCQQDYSSPFTFGSGTKLEIK
On to B1, for which binding was put at a Kd of 0.293 nM.
